{
  "source": "patent US8299028B2",
  "about": "“Chimeric peptide antagonist for GPCR135 or GPCR142” (Janssen Pharmaceutica NV, priority 2007, dated 2012)",
  "key": {"human GPCR135": {"molecular_target": "T1, human GPCR135 (Homo sapiens, UniProt Q9NSD7)", "T1 sequence (Q9NSD7 1-469)": "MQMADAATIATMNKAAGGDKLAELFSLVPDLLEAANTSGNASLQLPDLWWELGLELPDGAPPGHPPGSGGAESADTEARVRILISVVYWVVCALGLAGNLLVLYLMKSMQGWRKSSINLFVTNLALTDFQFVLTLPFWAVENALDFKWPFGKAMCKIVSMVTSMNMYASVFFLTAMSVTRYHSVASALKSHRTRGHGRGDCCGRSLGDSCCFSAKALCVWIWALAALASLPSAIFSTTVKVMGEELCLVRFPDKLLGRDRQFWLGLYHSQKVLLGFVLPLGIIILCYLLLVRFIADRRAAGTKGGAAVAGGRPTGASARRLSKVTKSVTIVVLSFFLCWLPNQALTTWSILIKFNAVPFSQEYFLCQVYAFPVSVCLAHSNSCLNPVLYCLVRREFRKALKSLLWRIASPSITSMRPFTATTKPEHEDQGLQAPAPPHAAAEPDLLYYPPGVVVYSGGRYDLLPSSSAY", "test": "Antagonism: rightward shift of relaxin-3 dose-response curve, SK-N-MC/CRE-β-gal reporter assay", "format": "cell-based", "set-up": "expressed in transfected cells", "details": "pharmacological characterization", "method": "In a functional assay using SK-N-MC/CRE-β-gal cells expressing human GPCR135 (A), GPCR142 (B) or LGR7 (C), ascending concentrations of relaxin-3 (R3) were used to generate dose response curves either in the absence or presence of 10 nM, 100 nM or 1 μM R3(BΔ23-27)R/I5. For Gαi linked GPCR135 and GPCR142, the assay was performed as inhibition of forskolin-induced β-gal expression. LGR7 is linked to Gαs, therefore addition of forskolin is not necessary. The antagonism of R3(BΔ23-27)R/I5 is indicated by the rightward-shift of the relaxin-3's dose-response curve.\n(§1) All peptides were tested for their GPCR135, GPCR142, and LGR7 agonist activities in SK-N-MC/CRE cells expressing the relevant receptors as described by Liu et al., 2005b. […] An increase in cAMP concentration in these cells is associated with increased β-gal expression, which can be measured using Chlorophenol Red-β-D-Galactopyranoside (CRGP) as a substrate and reading the optical absorbance at 570 nm. […] The results were analyzed using GraphPad Prism 4.0 software. […] The agonism and antagonism of peptides for rat LGR7 was assayed using a cAMP luminescence assay. […] The cAMP in the cells was measured with a cAMP detection kit (DiscoveRx HitHunter, Cat. #90-0041) according to the manufacturer's protocol. The results were analyzed using GraphPad Prism 4.0 software."}, "human LGR7": {"molecular_target": "T2, human LGR7 (Homo sapiens, UniProt Q9HBX9)", "T2 sequence (Q9HBX9 1-757)": "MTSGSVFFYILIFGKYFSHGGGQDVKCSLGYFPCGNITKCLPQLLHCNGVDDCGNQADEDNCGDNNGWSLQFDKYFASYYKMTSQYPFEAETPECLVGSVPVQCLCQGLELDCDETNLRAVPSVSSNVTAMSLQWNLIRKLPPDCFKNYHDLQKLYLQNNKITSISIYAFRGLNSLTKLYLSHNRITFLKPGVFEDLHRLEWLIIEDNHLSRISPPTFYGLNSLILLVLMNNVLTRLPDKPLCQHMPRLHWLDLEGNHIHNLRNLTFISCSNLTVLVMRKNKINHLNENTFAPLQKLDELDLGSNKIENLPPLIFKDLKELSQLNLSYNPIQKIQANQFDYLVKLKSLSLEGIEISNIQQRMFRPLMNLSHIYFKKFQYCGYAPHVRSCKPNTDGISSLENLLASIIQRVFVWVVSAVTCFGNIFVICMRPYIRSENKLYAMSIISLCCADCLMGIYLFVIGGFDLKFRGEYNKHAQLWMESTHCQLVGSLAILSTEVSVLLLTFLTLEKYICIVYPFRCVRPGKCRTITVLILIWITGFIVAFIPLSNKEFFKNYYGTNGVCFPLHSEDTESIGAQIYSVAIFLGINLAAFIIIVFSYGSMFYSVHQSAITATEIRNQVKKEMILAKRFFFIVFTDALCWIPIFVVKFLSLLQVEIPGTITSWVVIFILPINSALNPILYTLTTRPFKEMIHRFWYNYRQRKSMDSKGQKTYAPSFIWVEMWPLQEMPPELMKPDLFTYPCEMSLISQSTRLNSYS", "test": "Agonist assay, stimulation of β-gal expression in SK-N-MC/CRE-β-gal cells", "format": "cell-based", "set-up": "expressed in transfected cells; host or cells: SK-N-MC/CRE-β-gal", "method": "FIG. 1 provides a characterization of mutant relaxin-3 peptides as ligands for human GPCR135, GPCR142, and LGR7. The truncated peptides were tested for their GPCR135 and GPCR142 agonist activity using SK-N-MC/CRE-β-gal cells expressing either human GPCR135 (A) or GPCR142 (B). Agonists for GPCR135 or GPCR142 inhibit forskolin induced β-galactosidase (β-gal) expression. The LGR7 agonist activity of the truncated peptides was tested using SK-N-MC/CRE-β-gal cells expressing Gαs-linked human LGR7 (C). Human relaxin-3 was used as positive control in both cases. β-gal expression was measured by colorimetric assay using CPRG as the substrate and reading the absorbance at 570 nm.\nas §1, with “protocol. […]” for “protocol. The results were analyzed using GraphPad Prism 4.0 software.”"}},
  "data": [
    {"substance": "R3(BΔ23-27)R: Relaxin-3 mutant: B-chain SEQ ID NO:15 (Gly23-Trp27 deleted plus C-terminal Arg), relaxin-3 A-chain SEQ ID NO:13", "values": [
      {"measurement": "GPCR135 antagonist character", "setting": "human GPCR135", "result": "GPCR135 antagonists"},
      {"measurement": "EC50", "setting": "human LGR7; human LGR7 agonist response, mean ± SEM, NA = no agonist activity observed", "result": "> 1000", "unit": "nM"},
      {"measurement": "agonist activity at human LGR7", "setting": "human LGR7; stimulation of β-gal expression", "result": "no LGR7 agonist activity"}
    ]}
  ]
}
